The text below walks through data of paper doi:10.1101/2025.07.08.663703 (2025).

First the molecules themselves.
B1: MBP-tagged Mre11-C49 peptide (Mre11 C-terminal residues 644-692) [S. cerevisiae] / HisSUMO-tagged Mer2 [S. cerevisiae] (parent complex)
chain 1: SYGLLNGRKTKTKTRPAASTKTASRRGKGRASRTPKTDILGSLLAKKRK
chain 2: MVARGRTDEISTDVSEANSEHSLMITETSSPFRSIFSHSGKVANAGALEESDKQILEWAGKLELESMELRENSDKLIKVLNENSKTLCKSLNKFNQLLEQDAATNGNVKTLIKDLASQIENQLDKVSTAMLSKGDEKKTKSDSSYRQVLVEEISRYNSKITRHVTNKQHETEKSMRCTQEMLFNVGSQLEDVHKVLLSLSKDMHSLQTRQTALEMAFREKADHAYDRPDVSLNGTTLLHDMDEAHDKQRKKSVPPPRMMVTRSMKRRRSSSPTLSTSQNHNSEDNDDASHRLKRAARTIIPWEELRPDTLESEL

One assay covers variants of B1. Kind of assay: co-expression Ni-NTA pulldown, anti-MBP immunoblot quantification; co-expressed in E. coli; at least seven independent samples; parent: 1; read off a plot.
Turning to chain 2 MVARGRTDEISTDVSEANSEHSLMITETSSPFRSIFSHSGKVANAGALEASDKAILAWAGALELESMELRENSDKLIKVLNENSKTLCKSLNKFNQLLEQDAATNGNVKTLIKDLASQIENQLDKVSTAMLSKGDEKKTKSDSSYRQVLVEEISRYNSKITRHVTNKQHETEKSMRCTQEMLFNVGSQLEDVHKVLLSLSKDMHSLQTRQTALEMAFREKADHAYDRPDVSLNGTTLLHDMDEAHDKQRKKSVPPPRMMVTRSMKRRRSSSPTLSTSQNHNSEDNDDASHRLKRAARTIIPWEELRPDTLESEL [chain 2 E50A, chain 2 Q54A, chain 2 E57A, chain 2 K61A], the ratio to parent is about 0.26.

The variants in a further assay derive from B1. The assay is described as above. This is another data set of the same source.
For the variant chain 1 SYGLLNGRKTKTKTRPAASTKTASRRGKGRASRTPKTDIAGSALAKARK [chain 1 L40A, chain 1 L43A, chain 1 K47A], the ratio to parent is about 0.35.
